Residue numbers refer to the chain shown, from its start. Names and notes keep the numbering of the source.
T1: TNFR1 (Homo sapiens, UniProt P19438)
T1 chain: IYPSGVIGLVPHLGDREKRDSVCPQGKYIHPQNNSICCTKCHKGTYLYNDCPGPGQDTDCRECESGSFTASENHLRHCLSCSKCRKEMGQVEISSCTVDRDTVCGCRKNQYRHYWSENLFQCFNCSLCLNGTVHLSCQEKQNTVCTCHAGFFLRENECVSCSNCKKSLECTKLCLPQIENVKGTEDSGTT

B1: P32C (designed binder)
chain: MTLQELLREEALRRAEAEAFRYALELLAEKFCEQKEYLLDLAEEIESQIRSLSGVDVEDVRKFLDKEWAWVKELLAEHPAELAEVEAARAARLAELRAEVEAKVAA
B2: E5A (designed binder)
chain: B1 chain with E5A, C32P
B3: I49G (designed binder)
chain: B1 chain with C32P, I49G
B4: E18F (designed binder)
chain: B1 chain with E18F, C32P
B5: Q34N (designed binder)
chain: B1 chain with C32P, Q34N
B6: L93W (designed binder)
chain: B1 chain with C32P, L93W
B7: L52K (designed binder)
chain: B1 chain with C32P, L52K
B8: L93D (designed binder)
chain: B1 chain with C32P, L93D
B9: E81P (designed binder)
chain: B1 chain with C32P, E81P
B10: E33V (designed binder)
chain: B1 chain with C32P, E33V
B11: A11N (designed binder)
chain: B1 chain with A11N, C32P
B12: W68M (designed binder)
chain: B1 chain with C32P, W68M
B13: W68T (designed binder)
chain: B1 chain with C32P, W68T
B14: Q48P (designed binder)
chain: B1 chain with C32P, Q48P
B15: K30P (designed binder)
chain: B1 chain with K30P, C32P
B16: L26E (designed binder)
chain: B1 chain with L26E, C32P
B17: R21G (designed binder)
chain: B1 chain with R21G, C32P
B18: T2I (designed binder)
chain: B1 chain with T2I, C32P
B19: P32Y (designed binder)
chain: B1 chain with C32Y
B20: Q34R (designed binder)
chain: B1 chain with C32P, Q34R
B21: D59P (designed binder)
chain: B1 chain with C32P, D59P
B22: R21H (designed binder)
chain: B1 chain with R21H, C32P
B23: A19S (designed binder)
chain: B1 chain with A19S, C32P
B24: E9Q (designed binder)
chain: B1 chain with E9Q, C32P
B25: R13P (designed binder)
chain: B1 chain with R13P, C32P
B26: E101A (designed binder)
chain: B1 chain with C32P, E101A
B27: E44W (designed binder)
chain: B1 chain with C32P, E44W
B28: E73R (designed binder)
chain: B1 chain with C32P, E73R
B29: L12K (designed binder)
chain: B1 chain with L12K, C32P
B30: T2H (designed binder)
chain: B1 chain with T2H, C32P
B31: V85C (designed binder)
chain: B1 chain with C32P, V85C
B32: V57R (designed binder)
chain: B1 chain with C32P, V57R
B33: A19Y (designed binder)
chain: B1 chain with A19Y, C32P
B34: Q34C (designed binder)
chain: B1 chain with C32P, Q34C
B35: S47Y (designed binder)
chain: B1 chain with C32P, S47Y
B36: A106K (designed binder)
chain: B1 chain with C32P, A106K
B37: E58Q (designed binder)
chain: B1 chain with C32P, E58Q
B38: Q48F (designed binder)
chain: B1 chain with C32P, Q48F
B39: S53N (designed binder)
chain: B1 chain with C32P, S53N
B40: F31V (designed binder)
chain: B1 chain with F31V, C32P
B41: D65G (designed binder)
chain: B1 chain with C32P, D65G
B42: Y37L (designed binder)
chain: B1 chain with C32P, Y37L
B43: E46K (designed binder)
chain: B1 chain with C32P, E46K
B44: E9Y (designed binder)
chain: B1 chain with E9Y, C32P
B45: T2C (designed binder)
chain: B1 chain with T2C, C32P
B46: A42R (designed binder)
chain: B1 chain with C32P, A42R
B47: Y22T (designed binder)
chain: B1 chain with Y22T, C32P
B48: V85H (designed binder)
chain: B1 chain with C32P, V85H
B49: A76W (designed binder)
chain: B1 chain with C32P, A76W
B50: V57W (designed binder)
chain: B1 chain with C32P, V57W
B51: D65Y (designed binder)
chain: B1 chain with C32P, D65Y
B52: A87Q (designed binder)
chain: B1 chain with C32P, A87Q
B53: L39Q (designed binder)
chain: B1 chain with C32P, L39Q
B54: A106N (designed binder)
chain: B1 chain with C32P, A106N
B55: R61D (designed binder)
chain: B1 chain with C32P, R61D
B56: T2L (designed binder)
chain: B1 chain with T2L, C32P
B57: D56M (designed binder)
chain: B1 chain with C32P, D56M
B58: V60C (designed binder)
chain: B1 chain with C32P, V60C
B59: A11K (designed binder)
chain: B1 chain with A11K, C32P

Molecular target: T1, TNFR1
Test: yeast display SC50

Binder | apparent Kd (screen) [nM]
B1 | 0.539
B2 | 0.79
B3 | 1.05
B4 | 0.539
B5 | 0.539
B6 | 0.539
B7 | 1.05
B8 | 0.869
B9 | 0.718
B10 | 0.718
B11 | 0.405
B12 | 0.539
B13 | 1.54
B14 | 3.99
B15 | 0.653
B16 | 0.79
B17 | 0.869
B18 | 0.653
B19 | 0.539
B20 | 0.718

Binder | apparent Kd (screen) [nM]
B21 | 0.252
B22 | 0.49
B23 | 0.653
B24 | 0.49
B25 | 11.4
B26 | 0.79
B27 | 0.539
B28 | 0.539
B29 | 0.539
B30 | 0.869
B31 | 0.446
B32 | 0.79
B33 | 10.4
B34 | 1.05
B35 | 0.49
B36 | 1.05
B37 | 0.653
B38 | 13.8
B39 | 0.653
B40 | 0.653

Binder | apparent Kd (screen) [nM]
B41 | 0.593
B42 | 7.78
B43 | 0.593
B44 | 1.05
B45 | 2.73
B46 | 2.25
B47 | 0.49
B48 | 1.05
B49 | 0.446
B50 | 1.27
B51 | 0.653
B52 | 0.653
B53 | 1.27
B54 | 1.69
B55 | 11.4
B56 | 0.49
B57 | 0.956
B58 | 0.79
B59 | 0.539

Reference: article PMC12416549 (2024)
